# In publication PMC2819980:
# B1: FrbG (Streptomyces rubellomurinus) (protein)
# chain: MTHYATVICGGGPAGVSAVVAAAVQGRLEEFLDRGVLLVEATGRAGSGSIPHYGIRANSLGSAFLECLDGPAGSGLLAGLADSAEARELRGWADEYPPLPVVGAFLTLVGERVVDALRRHPRCDALLGHRVVEVRTGPERATVLLSGPDGELSHTGDRVLLTMGGRERTELAPDALAALVERRPGLRVLSSGEVITDPSWHPDAASPHRALGSIAVLGGAHSAWAVAAHLARLARAGWFAGPVEVTVVERRLPPIFYFSAAEARAEGYRWDEADVCGPSGRVHRFGGLRGPARELARQVMGLAAEKAPDGFGQVVLDGPWTAEALEAAVGDADLVITALGYDARLPRLLGADGRELELARPRGAVDTGRDGLPGLAAGGRAERLVMYGLGAGLVPSEETGGEPGYRGRLDGVWVYQHDIGAVILRALLANDRTEDGR
# Substrate: NCCCP(=O)(O)OP(=O)(O)OC[C@H]1O[C@@H](n2ccc(N)nc2=O)[C@H](O)[C@@H]1O
# Test: steady-state kinetics
# Format: biochemical, Streptomyces rubellomurinus
protein,measurement,value
B1,Km,15.1 ± 1.5 µM
same,kcat,0.0987 ± 0.00633 s⁻¹
same,kcat/Km,6520 M⁻¹ s⁻¹
